Test system: C[C@@H](N)C(=O)O
Assay: purified protein, by the assay type
Conditions: other: air saturation, 25°C, pH 8.5, 0.2 mM FAD

R120E hDAAO variant (Homo sapiens; R120E), sequence (chain, as listed by the source R120E R120E): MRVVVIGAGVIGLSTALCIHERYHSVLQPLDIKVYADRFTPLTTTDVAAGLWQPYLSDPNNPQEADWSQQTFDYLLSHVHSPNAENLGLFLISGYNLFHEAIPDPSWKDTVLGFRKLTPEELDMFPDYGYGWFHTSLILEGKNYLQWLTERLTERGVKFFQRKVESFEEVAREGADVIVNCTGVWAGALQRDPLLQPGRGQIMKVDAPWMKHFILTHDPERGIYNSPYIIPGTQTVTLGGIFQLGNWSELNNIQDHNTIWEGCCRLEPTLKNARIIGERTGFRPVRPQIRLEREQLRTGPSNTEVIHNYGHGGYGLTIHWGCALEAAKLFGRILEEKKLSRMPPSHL
R120L hDAAO variant (Homo sapiens; R120L), sequence (chain, as listed by the source R120L R120L): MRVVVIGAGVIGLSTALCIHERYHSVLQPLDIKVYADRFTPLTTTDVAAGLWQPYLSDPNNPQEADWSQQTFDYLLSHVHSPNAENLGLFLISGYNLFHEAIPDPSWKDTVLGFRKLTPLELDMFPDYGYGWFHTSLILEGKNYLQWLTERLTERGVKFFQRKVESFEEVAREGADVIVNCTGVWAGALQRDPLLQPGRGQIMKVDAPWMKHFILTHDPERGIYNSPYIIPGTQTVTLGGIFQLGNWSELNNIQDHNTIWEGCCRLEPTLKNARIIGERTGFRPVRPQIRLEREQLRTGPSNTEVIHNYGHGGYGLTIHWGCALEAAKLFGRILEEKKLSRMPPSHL

R120E hDAAO variant (Homo sapiens; R120E)
Km: 1400 ± 100 µM
kcat: 12.6 s⁻¹
kcat/Km: 8900 M⁻¹ s⁻¹

R120L hDAAO variant (Homo sapiens; R120L)
Km: 2000 ± 300 µM
kcat: 17.3 s⁻¹
kcat/Km: 8500 M⁻¹ s⁻¹
